# Measurements reported in patent US20190015483A1 (CSL BEHRING RECOMBINANT FACILITY, published 2019).
# T1: recombinant Factor VIII (CSL627, rVIII-SingleChain) (Homo sapiens (Human), UniProt P00451 20-2351)
# T1 construct: also called FVIII
# T1 sequence: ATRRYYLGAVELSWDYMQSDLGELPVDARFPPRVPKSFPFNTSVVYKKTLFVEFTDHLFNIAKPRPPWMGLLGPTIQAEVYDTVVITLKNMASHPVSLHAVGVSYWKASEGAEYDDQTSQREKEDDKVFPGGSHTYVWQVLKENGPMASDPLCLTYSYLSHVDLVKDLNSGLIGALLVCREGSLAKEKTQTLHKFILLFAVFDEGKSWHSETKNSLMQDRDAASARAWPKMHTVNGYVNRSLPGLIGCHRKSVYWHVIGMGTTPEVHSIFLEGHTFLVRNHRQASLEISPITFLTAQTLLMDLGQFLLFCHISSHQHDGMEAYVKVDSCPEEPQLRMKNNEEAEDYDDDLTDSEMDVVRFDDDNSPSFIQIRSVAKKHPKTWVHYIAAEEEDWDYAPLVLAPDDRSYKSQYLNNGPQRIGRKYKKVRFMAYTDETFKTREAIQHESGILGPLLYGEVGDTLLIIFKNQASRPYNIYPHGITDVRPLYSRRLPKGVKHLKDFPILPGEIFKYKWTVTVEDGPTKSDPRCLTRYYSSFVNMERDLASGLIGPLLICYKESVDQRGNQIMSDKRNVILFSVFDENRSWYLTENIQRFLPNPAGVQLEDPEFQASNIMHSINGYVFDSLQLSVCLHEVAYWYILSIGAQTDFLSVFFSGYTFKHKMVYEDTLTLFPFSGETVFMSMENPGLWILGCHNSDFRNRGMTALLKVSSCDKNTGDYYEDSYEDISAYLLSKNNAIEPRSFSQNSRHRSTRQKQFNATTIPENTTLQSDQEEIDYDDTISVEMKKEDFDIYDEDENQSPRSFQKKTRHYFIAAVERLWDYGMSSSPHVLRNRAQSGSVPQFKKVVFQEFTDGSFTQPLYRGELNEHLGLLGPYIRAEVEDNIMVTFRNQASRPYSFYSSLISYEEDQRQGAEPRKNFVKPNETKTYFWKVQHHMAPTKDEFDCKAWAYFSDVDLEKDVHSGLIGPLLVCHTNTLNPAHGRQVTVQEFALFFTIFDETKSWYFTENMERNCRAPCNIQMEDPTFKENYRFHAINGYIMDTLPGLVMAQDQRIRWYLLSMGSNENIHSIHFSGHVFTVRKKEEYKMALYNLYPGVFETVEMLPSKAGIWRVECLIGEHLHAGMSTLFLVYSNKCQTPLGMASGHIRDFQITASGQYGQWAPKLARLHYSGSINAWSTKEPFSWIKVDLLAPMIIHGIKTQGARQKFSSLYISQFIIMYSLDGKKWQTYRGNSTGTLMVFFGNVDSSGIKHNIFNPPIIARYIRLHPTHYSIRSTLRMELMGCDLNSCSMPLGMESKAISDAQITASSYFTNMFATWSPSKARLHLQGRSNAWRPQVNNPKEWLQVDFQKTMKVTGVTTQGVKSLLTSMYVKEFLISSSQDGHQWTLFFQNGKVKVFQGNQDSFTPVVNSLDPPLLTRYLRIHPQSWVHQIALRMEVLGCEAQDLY
# Biological target: T1, recombinant Factor VIII (CSL627, …)
# Experiment: SPR, anti-His capture
# Summary of the method: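 Kinetic constants come from 1:1 model fits of sensorgrams corrected against an anti-His-only spot and a buffer blank. In this screen, mutants from cell medium sat at 40-150 RU, and FVIII flowed over at 1 nM for 5 minutes, then dissociated for 5 minutes.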
Binder,Kd [nM],koff [s⁻¹],kon [M⁻¹ s⁻¹]
Hu-vWF[764-1270]-8His S764P-L765M (other) PMSCRPPMVKLVCPADNLRAEGLECTKTCQNYDLECMSMGCVSGCLCPPGMVRHENRCVALERCPCFHQGKEYAPGETVKIGCNTCVCRDRKWNCTDHVCDATCSTIGMAHYLTFDGLKYLFPGECQYVLVQDYCGSNPGTFRILVGNKGCSHPSVKCKKRVTILVEGGEIELFDGEVNVKRPMKDETHFEVVESGRYIILLLGKALSVVWDRHLSISVVLKQTYQEKVCGLCGNFDGIQNNDLTSSNLQVEEDPVDFGNSWKVSSQCADTRKVPLDSSPATCHNNIMKQTMVDSSCRILTSDVFQDCNKLVDPEPYLDVCIYDTCSCESIGDCACFCDTIAAYAHVCAQHGKVVTWRTATLCPQSCEERNLRENGYECEWRYNSCAPACQVTCQHPEPLACPVQCVEGCHAHCPPGKILDELLQTCVDPEDCPVCEVAGRRFASGKKVTLNPSDPEHCQICHCDVVNLTCEACQEPGGLVVPPTDAPVSPTTLYVEDISEPPLHDFHHHHHHHH,0.0243,0.000237,9.76e+06
Hu-vWF[764-1270]-8His S764P-L765P (other) PPSCRPPMVKLVCPADNLRAEGLECTKTCQNYDLECMSMGCVSGCLCPPGMVRHENRCVALERCPCFHQGKEYAPGETVKIGCNTCVCRDRKWNCTDHVCDATCSTIGMAHYLTFDGLKYLFPGECQYVLVQDYCGSNPGTFRILVGNKGCSHPSVKCKKRVTILVEGGEIELFDGEVNVKRPMKDETHFEVVESGRYIILLLGKALSVVWDRHLSISVVLKQTYQEKVCGLCGNFDGIQNNDLTSSNLQVEEDPVDFGNSWKVSSQCADTRKVPLDSSPATCHNNIMKQTMVDSSCRILTSDVFQDCNKLVDPEPYLDVCIYDTCSCESIGDCACFCDTIAAYAHVCAQHGKVVTWRTATLCPQSCEERNLRENGYECEWRYNSCAPACQVTCQHPEPLACPVQCVEGCHAHCPPGKILDELLQTCVDPEDCPVCEVAGRRFASGKKVTLNPSDPEHCQICHCDVVNLTCEACQEPGGLVVPPTDAPVSPTTLYVEDISEPPLHDFHHHHHHHH,0.0238,0.000242,1.02e+07
Hu-vWF[764-1270]-8His S764P-L765Q (other) PQSCRPPMVKLVCPADNLRAEGLECTKTCQNYDLECMSMGCVSGCLCPPGMVRHENRCVALERCPCFHQGKEYAPGETVKIGCNTCVCRDRKWNCTDHVCDATCSTIGMAHYLTFDGLKYLFPGECQYVLVQDYCGSNPGTFRILVGNKGCSHPSVKCKKRVTILVEGGEIELFDGEVNVKRPMKDETHFEVVESGRYIILLLGKALSVVWDRHLSISVVLKQTYQEKVCGLCGNFDGIQNNDLTSSNLQVEEDPVDFGNSWKVSSQCADTRKVPLDSSPATCHNNIMKQTMVDSSCRILTSDVFQDCNKLVDPEPYLDVCIYDTCSCESIGDCACFCDTIAAYAHVCAQHGKVVTWRTATLCPQSCEERNLRENGYECEWRYNSCAPACQVTCQHPEPLACPVQCVEGCHAHCPPGKILDELLQTCVDPEDCPVCEVAGRRFASGKKVTLNPSDPEHCQICHCDVVNLTCEACQEPGGLVVPPTDAPVSPTTLYVEDISEPPLHDFHHHHHHHH,0.88,0.00714,8.12e+06
Hu-vWF[764-1270]-8His S764P-L765T (other) PTSCRPPMVKLVCPADNLRAEGLECTKTCQNYDLECMSMGCVSGCLCPPGMVRHENRCVALERCPCFHQGKEYAPGETVKIGCNTCVCRDRKWNCTDHVCDATCSTIGMAHYLTFDGLKYLFPGECQYVLVQDYCGSNPGTFRILVGNKGCSHPSVKCKKRVTILVEGGEIELFDGEVNVKRPMKDETHFEVVESGRYIILLLGKALSVVWDRHLSISVVLKQTYQEKVCGLCGNFDGIQNNDLTSSNLQVEEDPVDFGNSWKVSSQCADTRKVPLDSSPATCHNNIMKQTMVDSSCRILTSDVFQDCNKLVDPEPYLDVCIYDTCSCESIGDCACFCDTIAAYAHVCAQHGKVVTWRTATLCPQSCEERNLRENGYECEWRYNSCAPACQVTCQHPEPLACPVQCVEGCHAHCPPGKILDELLQTCVDPEDCPVCEVAGRRFASGKKVTLNPSDPEHCQICHCDVVNLTCEACQEPGGLVVPPTDAPVSPTTLYVEDISEPPLHDFHHHHHHHH,0.634,0.00882,1.39e+07
Hu-vWF[764-1270]-8His S764P-L765V (other) PVSCRPPMVKLVCPADNLRAEGLECTKTCQNYDLECMSMGCVSGCLCPPGMVRHENRCVALERCPCFHQGKEYAPGETVKIGCNTCVCRDRKWNCTDHVCDATCSTIGMAHYLTFDGLKYLFPGECQYVLVQDYCGSNPGTFRILVGNKGCSHPSVKCKKRVTILVEGGEIELFDGEVNVKRPMKDETHFEVVESGRYIILLLGKALSVVWDRHLSISVVLKQTYQEKVCGLCGNFDGIQNNDLTSSNLQVEEDPVDFGNSWKVSSQCADTRKVPLDSSPATCHNNIMKQTMVDSSCRILTSDVFQDCNKLVDPEPYLDVCIYDTCSCESIGDCACFCDTIAAYAHVCAQHGKVVTWRTATLCPQSCEERNLRENGYECEWRYNSCAPACQVTCQHPEPLACPVQCVEGCHAHCPPGKILDELLQTCVDPEDCPVCEVAGRRFASGKKVTLNPSDPEHCQICHCDVVNLTCEACQEPGGLVVPPTDAPVSPTTLYVEDISEPPLHDFHHHHHHHH,0.355,0.0022,6.19e+06

# Next, values leading:
Kd [nM],koff [s⁻¹],kon [M⁻¹ s⁻¹],Binder
0.0123,0.000166,1.35e+07,Hu-vWF[764-1270]-8His S764P-S766A (other) PLACRPPMVKLVCPADNLRAEGLECTKTCQNYDLECMSMGCVSGCLCPPGMVRHENRCVALERCPCFHQGKEYAPGETVKIGCNTCVCRDRKWNCTDHVCDATCSTIGMAHYLTFDGLKYLFPGECQYVLVQDYCGSNPGTFRILVGNKGCSHPSVKCKKRVTILVEGGEIELFDGEVNVKRPMKDETHFEVVESGRYIILLLGKALSVVWDRHLSISVVLKQTYQEKVCGLCGNFDGIQNNDLTSSNLQVEEDPVDFGNSWKVSSQCADTRKVPLDSSPATCHNNIMKQTMVDSSCRILTSDVFQDCNKLVDPEPYLDVCIYDTCSCESIGDCACFCDTIAAYAHVCAQHGKVVTWRTATLCPQSCEERNLRENGYECEWRYNSCAPACQVTCQHPEPLACPVQCVEGCHAHCPPGKILDELLQTCVDPEDCPVCEVAGRRFASGKKVTLNPSDPEHCQICHCDVVNLTCEACQEPGGLVVPPTDAPVSPTTLYVEDISEPPLHDFHHHHHHHH
0.355,0.0022,6.19e+06,Hu-vWF[764-1270]-8His S764P-L765Y (other) PYSCRPPMVKLVCPADNLRAEGLECTKTCQNYDLECMSMGCVSGCLCPPGMVRHENRCVALERCPCFHQGKEYAPGETVKIGCNTCVCRDRKWNCTDHVCDATCSTIGMAHYLTFDGLKYLFPGECQYVLVQDYCGSNPGTFRILVGNKGCSHPSVKCKKRVTILVEGGEIELFDGEVNVKRPMKDETHFEVVESGRYIILLLGKALSVVWDRHLSISVVLKQTYQEKVCGLCGNFDGIQNNDLTSSNLQVEEDPVDFGNSWKVSSQCADTRKVPLDSSPATCHNNIMKQTMVDSSCRILTSDVFQDCNKLVDPEPYLDVCIYDTCSCESIGDCACFCDTIAAYAHVCAQHGKVVTWRTATLCPQSCEERNLRENGYECEWRYNSCAPACQVTCQHPEPLACPVQCVEGCHAHCPPGKILDELLQTCVDPEDCPVCEVAGRRFASGKKVTLNPSDPEHCQICHCDVVNLTCEACQEPGGLVVPPTDAPVSPTTLYVEDISEPPLHDFHHHHHHHH
0.645,0.00514,7.97e+06,Hu-vWF[764-1270]-8His S764P-L765W (other) PWSCRPPMVKLVCPADNLRAEGLECTKTCQNYDLECMSMGCVSGCLCPPGMVRHENRCVALERCPCFHQGKEYAPGETVKIGCNTCVCRDRKWNCTDHVCDATCSTIGMAHYLTFDGLKYLFPGECQYVLVQDYCGSNPGTFRILVGNKGCSHPSVKCKKRVTILVEGGEIELFDGEVNVKRPMKDETHFEVVESGRYIILLLGKALSVVWDRHLSISVVLKQTYQEKVCGLCGNFDGIQNNDLTSSNLQVEEDPVDFGNSWKVSSQCADTRKVPLDSSPATCHNNIMKQTMVDSSCRILTSDVFQDCNKLVDPEPYLDVCIYDTCSCESIGDCACFCDTIAAYAHVCAQHGKVVTWRTATLCPQSCEERNLRENGYECEWRYNSCAPACQVTCQHPEPLACPVQCVEGCHAHCPPGKILDELLQTCVDPEDCPVCEVAGRRFASGKKVTLNPSDPEHCQICHCDVVNLTCEACQEPGGLVVPPTDAPVSPTTLYVEDISEPPLHDFHHHHHHHH
